Each block holds one binder with its values, some of them ahead of it.
Legend:
Assay in all cases: holdup assay
Set-up in all cases: key: below the threshold = too weak to quantify, mostly under pKd 3.1 to 4
[1] = biological target: T1, NHERF3_4, Q5T2W1
T1 sequence (Q5T2W1 373-468, limits assumed, looked up): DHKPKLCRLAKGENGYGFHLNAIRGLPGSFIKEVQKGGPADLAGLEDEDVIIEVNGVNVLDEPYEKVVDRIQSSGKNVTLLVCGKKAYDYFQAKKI

[2] = biological target: DLG4_3, P78352
[3] = biological target: HTRA2, O43464
[4] = biological target: LNX1_3, Q8TBB1
Chain of LNX1_3, Q8TBB1 (Q8TBB1 500-596): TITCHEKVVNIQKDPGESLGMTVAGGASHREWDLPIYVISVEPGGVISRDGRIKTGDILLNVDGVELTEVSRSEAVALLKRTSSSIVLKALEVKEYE

[5] = biological target: IL16_4, Q14005
Chain of IL16_4, Q14005 (Q14005 1229-1329): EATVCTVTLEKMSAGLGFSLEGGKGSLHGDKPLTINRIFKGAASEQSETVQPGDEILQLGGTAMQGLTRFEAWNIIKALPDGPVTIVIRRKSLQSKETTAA

[6] = biological target: GRIP2_6, Q9C0E4
Chain of GRIP2_6, Q9C0E4 (Q9C0E4 648-740): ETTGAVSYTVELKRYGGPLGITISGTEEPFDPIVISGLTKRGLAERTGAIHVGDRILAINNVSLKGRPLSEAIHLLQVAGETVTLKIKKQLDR

[7] = biological target: Inadl_3, Q8NI35
Chain of Inadl_3, Q8NI35 (Q8NI35 359-469): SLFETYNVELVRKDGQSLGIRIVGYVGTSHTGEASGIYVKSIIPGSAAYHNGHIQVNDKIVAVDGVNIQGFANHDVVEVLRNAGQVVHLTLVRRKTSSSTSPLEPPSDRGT

[8] = biological target: MAGI2_2, Q86UL8
Chain of MAGI2_2, Q86UL8 (Q86UL8 410-522): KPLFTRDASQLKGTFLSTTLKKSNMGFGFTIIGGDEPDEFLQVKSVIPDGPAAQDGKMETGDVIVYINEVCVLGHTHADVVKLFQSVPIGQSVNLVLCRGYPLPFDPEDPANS

[9] = biological target: T2, LNX2_3, Q8N448
T2 sequence (Q8N448 463-564, limits assumed, looked up): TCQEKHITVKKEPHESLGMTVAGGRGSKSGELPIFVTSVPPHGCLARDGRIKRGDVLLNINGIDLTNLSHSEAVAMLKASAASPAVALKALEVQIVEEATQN

[10] = biological target: T3, MPDZ_12, O75970
T3 sequence (O75970 1857-1958, limits assumed, looked up): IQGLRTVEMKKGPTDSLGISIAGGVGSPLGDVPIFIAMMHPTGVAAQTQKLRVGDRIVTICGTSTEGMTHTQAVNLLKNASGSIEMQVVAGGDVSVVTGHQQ

[11] = biological target: Inadl_8, Q8NI35
Chain of Inadl_8, Q8NI35 (Q8NI35 1425-1530): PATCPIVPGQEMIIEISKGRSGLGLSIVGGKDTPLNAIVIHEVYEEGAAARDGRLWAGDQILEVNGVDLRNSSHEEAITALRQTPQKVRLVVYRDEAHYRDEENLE

[12] = biological target: DLG5_1, Q8TDM6
Chain of DLG5_1, Q8TDM6 (Q8TDM6 617-713): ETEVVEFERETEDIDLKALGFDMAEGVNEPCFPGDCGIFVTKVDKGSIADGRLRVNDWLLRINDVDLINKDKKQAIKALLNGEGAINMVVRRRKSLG

[13] = biological target: SCRIB_1, Q14160
Chain of SCRIB_1, Q14160 (Q14160 718-814): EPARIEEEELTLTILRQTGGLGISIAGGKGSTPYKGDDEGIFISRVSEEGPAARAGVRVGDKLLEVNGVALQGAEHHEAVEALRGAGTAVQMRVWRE

[14] = biological target: SNX27, Q96L92
[15] = biological target: T4, LIN7A, O14910
T4 sequence (O14910 103-200, limits assumed, looked up): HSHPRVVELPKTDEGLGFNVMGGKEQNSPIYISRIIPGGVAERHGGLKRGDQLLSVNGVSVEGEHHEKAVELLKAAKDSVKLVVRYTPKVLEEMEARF

[16] = biological target: T5, APBA1_2, Q02410
T5 sequence (Q02410 742-832, limits assumed, looked up): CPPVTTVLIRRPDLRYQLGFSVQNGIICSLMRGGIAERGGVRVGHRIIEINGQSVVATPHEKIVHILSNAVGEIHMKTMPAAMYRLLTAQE

[17] = biological target: PARD3_3, Q8TEW0
Chain of PARD3_3, Q8TEW0 (Q8TEW0 582-685): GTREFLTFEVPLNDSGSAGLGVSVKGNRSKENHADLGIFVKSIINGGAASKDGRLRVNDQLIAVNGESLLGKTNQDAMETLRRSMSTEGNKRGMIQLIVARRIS

[18] = biological target: TJP2_1, Q9UDY2
Chain of TJP2_1, Q9UDY2 (Q9UDY2 24-128): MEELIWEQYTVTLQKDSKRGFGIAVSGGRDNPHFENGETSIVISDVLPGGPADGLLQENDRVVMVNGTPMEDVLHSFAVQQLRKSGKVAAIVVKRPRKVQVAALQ

[19] = biological target: GRIP2_4, Q9C0E4
Chain of GRIP2_4, Q9C0E4 (Q9C0E4 446-548): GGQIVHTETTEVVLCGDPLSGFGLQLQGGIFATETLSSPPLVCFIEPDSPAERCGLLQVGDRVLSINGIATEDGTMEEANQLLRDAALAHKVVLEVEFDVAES

[20] = biological target: T6, PDZD2_2, O15018
T6 sequence (O15018 329-429, limits assumed, looked up): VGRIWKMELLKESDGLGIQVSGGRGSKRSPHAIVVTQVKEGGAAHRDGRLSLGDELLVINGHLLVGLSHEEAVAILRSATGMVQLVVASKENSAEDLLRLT

[21] = biological target: T7, CARD11, Q9BXL7
T7 sequence (Q9BXL7 662-765, limits assumed, looked up): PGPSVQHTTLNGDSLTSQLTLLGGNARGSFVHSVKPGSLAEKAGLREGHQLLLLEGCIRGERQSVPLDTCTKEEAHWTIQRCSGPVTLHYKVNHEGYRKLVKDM

[22] = biological target: MAGI1_1, Q96QZ7
Chain of MAGI1_1, Q96QZ7 (Q96QZ7 1-106): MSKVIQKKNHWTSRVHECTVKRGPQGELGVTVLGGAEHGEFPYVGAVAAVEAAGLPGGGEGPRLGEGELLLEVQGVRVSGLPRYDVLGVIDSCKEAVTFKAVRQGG

[23] = biological target: Inadl_9, Q8NI35
Chain of Inadl_9, Q8NI35 (Q8NI35 1530-1615): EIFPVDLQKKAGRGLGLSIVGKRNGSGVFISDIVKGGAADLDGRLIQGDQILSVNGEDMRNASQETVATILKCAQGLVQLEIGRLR

[24] = biological target: NHERF2_2, Q15599
Chain of NHERF2_2, Q15599 (Q15599 142-238): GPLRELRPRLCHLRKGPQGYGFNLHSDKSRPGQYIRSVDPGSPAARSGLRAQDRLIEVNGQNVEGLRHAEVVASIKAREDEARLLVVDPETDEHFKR

[25] = biological target: NHERF4_1, Q86UT5-2
Chain of NHERF4_1, Q86UT5-2 (Q86UT5 other isoform, or with tags, fused parts or gaps): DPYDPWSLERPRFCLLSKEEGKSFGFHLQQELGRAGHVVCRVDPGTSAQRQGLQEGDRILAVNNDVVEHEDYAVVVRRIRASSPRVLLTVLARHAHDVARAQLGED

[26] = biological target: T8, SHANK1, Q9Y566
T8 sequence (Q9Y566 658-767, limits assumed, looked up): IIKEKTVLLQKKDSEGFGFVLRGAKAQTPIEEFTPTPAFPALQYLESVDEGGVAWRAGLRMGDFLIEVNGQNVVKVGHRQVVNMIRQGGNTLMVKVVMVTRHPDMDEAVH

[27] = biological target: T9, RAPGEF6, Q8TEU7
T9 sequence (Q8TEU7 525-625, limits assumed, looked up): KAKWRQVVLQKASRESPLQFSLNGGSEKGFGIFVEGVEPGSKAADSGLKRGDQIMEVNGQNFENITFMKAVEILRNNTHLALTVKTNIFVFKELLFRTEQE

[28] = biological target: LIMK2, P53671
Chain of LIMK2, P53671 (P53671 143-248): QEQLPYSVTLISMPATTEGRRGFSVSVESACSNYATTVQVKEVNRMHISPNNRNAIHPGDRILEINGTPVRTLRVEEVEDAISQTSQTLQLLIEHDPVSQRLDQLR

[29] = biological target: GRASP, Q7Z6J2
Chain of GRASP, Q7Z6J2 (Q7Z6J2 96-193): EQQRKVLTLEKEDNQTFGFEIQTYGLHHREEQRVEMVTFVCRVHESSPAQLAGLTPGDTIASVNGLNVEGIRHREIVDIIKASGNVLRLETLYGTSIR

[30] = plain residues with an end cap or a label only (N-terminal biotin on a linker: ado-ado)
[31] = modified: phospho on S at position -3 from the C-terminal residue

Chain of DLG4_3, P78352 (P78352 306-403): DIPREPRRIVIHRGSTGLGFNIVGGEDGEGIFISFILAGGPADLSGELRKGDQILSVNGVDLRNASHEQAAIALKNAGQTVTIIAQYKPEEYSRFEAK
Chain of HTRA2, O43464 (O43464 355-458): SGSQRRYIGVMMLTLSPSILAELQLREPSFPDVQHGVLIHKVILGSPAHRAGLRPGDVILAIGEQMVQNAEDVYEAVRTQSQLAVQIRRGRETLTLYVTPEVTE

pKd [1, 30]: below the threshold
pKd [2, 30]: below the threshold
pKd [3, 30]: below the threshold
pKd [4, 30]: below the threshold
pKd [5, 30]: below the threshold
pKd [6, 30]: below the threshold
pKd [7, 30]: below the threshold
pKd [8, 30]: below the threshold
pKd [9, 30]: below the threshold
pKd [10, 30]: below the threshold
pKd [11, 30]: below the threshold
pKd [12, 30]: below the threshold
pKd [13, 30]: below the threshold
pKd [14, 30]: below the threshold
pKd [15, 30]: below the threshold
pKd [16, 30]: below the threshold
pKd [17, 30]: below the threshold
pKd [18, 30]: below the threshold
pKd [19, 30]: below the threshold
pKd [20, 30]: below the threshold
pKd [21, 30]: below the threshold
pKd [22, 30]: below the threshold
pKd [23, 30]: below the threshold
pKd [24, 30]: below the threshold
pKd [25, 30]: below the threshold
pKd [26, 30]: below the threshold
pKd [27, 30]: below the threshold
pKd [28, 30]: below the threshold
pKd [29, 30]: below the threshold
B1: TUBB4B, P68371 (peptide)
chain: FEEEAEEEVA

pKd [1, 30]: below the threshold
pKd [2, 30]: below the threshold
pKd [3, 30]: below the threshold
pKd [4, 30]: below the threshold
pKd [5, 30]: below the threshold
pKd [6, 30]: 3.47
pKd [7, 30]: 5.08
pKd [8, 30]: below the threshold
pKd [9, 30]: below the threshold
pKd [10, 30]: below the threshold
pKd [11, 30]: below the threshold
pKd [12, 30]: below the threshold
pKd [13, 30]: below the threshold
pKd [14, 30]: below the threshold
pKd [15, 30]: below the threshold
pKd [16, 30]: below the threshold
pKd [17, 30]: 5.29
pKd [18, 30]: below the threshold
pKd [19, 30]: below the threshold
pKd [20, 30]: 3.77
pKd [21, 30]: below the threshold
pKd [22, 30]: below the threshold
pKd [23, 30]: 3.58
pKd [24, 30]: below the threshold
pKd [25, 30]: below the threshold
pKd [26, 30]: below the threshold
pKd [27, 30]: below the threshold
pKd [28, 30]: below the threshold
pKd [29, 30]: below the threshold
B2: AMOTL1, Q8IY63 (peptide)
chain: PDGEMMEVLI

pKd [1, 31]: below the threshold
pKd [2, 31]: below the threshold
pKd [3, 31]: 3.75
pKd [4, 31]: below the threshold
pKd [5, 31]: below the threshold
pKd [6, 31]: below the threshold
pKd [7, 31]: below the threshold
pKd [8, 31]: 3.57
pKd [9, 31]: below the threshold
pKd [10, 31]: below the threshold
pKd [11, 31]: below the threshold
pKd [12, 31]: below the threshold
pKd [13, 31]: 4.07
pKd [14, 31]: 4.1
pKd [15, 31]: below the threshold
pKd [16, 31]: below the threshold
pKd [17, 31]: 3.76
pKd [18, 31]: 3.57
pKd [19, 31]: below the threshold
pKd [20, 31]: below the threshold
pKd [21, 31]: below the threshold
pKd [22, 31]: below the threshold
pKd [23, 31]: below the threshold
pKd [24, 31]: 3.68
pKd [25, 31]: below the threshold
pKd [26, 31]: below the threshold
pKd [27, 31]: below the threshold
pKd [28, 31]: below the threshold
pKd [29, 31]: below the threshold
B3: RPS6KA1_-3P, Q15418 (peptide)
chain: RRVRKLPSTTL
